Laboratory results as given in PMC5435866.
Where a chain is given by its changes, count along the chain named.

Legend:
Assay in all cases: EMSA
Drosophila SLBP 4S-4E = target: T1, Drosophila SLBP 4S-4E (UniProt Q9VAN6 1-276, S269E;S271E;S273E;S275E)
T1 sequence: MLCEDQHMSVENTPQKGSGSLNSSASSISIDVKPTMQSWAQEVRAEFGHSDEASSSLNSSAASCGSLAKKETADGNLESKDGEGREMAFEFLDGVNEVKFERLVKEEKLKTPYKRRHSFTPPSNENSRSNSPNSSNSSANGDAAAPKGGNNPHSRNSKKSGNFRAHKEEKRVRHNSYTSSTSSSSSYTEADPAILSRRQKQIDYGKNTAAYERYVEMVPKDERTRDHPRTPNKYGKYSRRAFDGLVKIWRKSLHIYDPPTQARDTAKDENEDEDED

Drosophila SLBP ER = target: T2, Drosophila SLBP ER (UniProt Q9VAN6 1-276, A210G;E212Q;R213C)
T2 sequence: T1 sequence with A210G, E212Q, R213C, E269S, E271S, E273S, E275S

Drosophila SLBP 4S-4A = target: T3, Drosophila SLBP 4S-4A (UniProt Q9VAN6 1-276, S269A;S271A;S273A;S275A)
T3 sequence: T1 sequence with E269A, E271A, E273A, E275A

Measured: binding result

GUGCCAAAAAGGCUCUUUUCAGAGCCACCCA (structured_RNA) [SL RNA]
binds: Drosophila SLBP 4S-4E | Drosophila SLBP ER | Drosophila SLBP 4S-4A
